# Experimental data published in PMC4321091, “Recombinant Cyclodextrinase from Thermococcus kodakarensis KOD1: Expression, Purification, and Enzymatic Characterization” (Archaea, 2015).
# B1: CDase-Tk (Tk1770) (Thermococcus kodakarensis KOD1) (protein)
# chain: MYKVFGFEENFIHGRVARVEFSLPDAGRWDYAYLLGNFNAFNEGSFRMKHEDKRWIIEIKLPEGLWRYAFSAGGEFLLDPENPEKELYRRPSYKFEREVSLAKIAGNDMVFHRPALLYLYSFGDRTHVLLRSKKGKVDAAYLVTDDTHVKMRKKADGEVFEYYEAVLQETEKLRYSFEVFLKEGKSLTLGPFEAAPFRLDAPSWILDRVFYQIMPDRFAKGRDHEPPFLSWEYYGGDLWGIVEKIDHLEELGVNALYLTPIFESMTYHGYDITDYLRVAERLGGEEAFRELVKALKSRDIKLVLDGVFHHTSFFHPFFRDVVERGEESEYADFYRVKGFPVVSEEFIRVLKSDLPPMEKYQTLKKMGWNYESFFSVWVMPRLNHDSPKVREFVARVMNYWLEKGADGWRLDVAHGVPPGFWREVREGLPDDAYLFGEVMDDPRLYLFGVFHGVMNYPLYDLLLRFFAFGEIGATEFINGIELLSAHLGPAEYFTYNFLDNHDTERFIDLAGKERYLCALTFLMTYKGIPAIFYGDEIGLRGSGEGMSAGRTPMSWDEEKWDFQILRQTMKLIELRRSLKSLQVGSFRVIGAGEKWFVYERKAGSERVLVGINCSWNDVETPVPSNGSNEQIKIPAFSSIIRVKDSMNVHIGSDLQE
# notes: pET28a EcoRI/XhoI, E. coli BL21(DE3), DEAE purified
# Substrate: OC[C@H]1O[C@@H]2O[C@H]3[C@H](O)[C@@H](O)[C@@H](O[C@H]4[C@H](O)[C@@H](O)[C@@H](O[C@H]5[C@H](O)[C@@H](O)[C@@H](O[C@H]6[C@H](O)[C@@H](O)[C@@H](O[C@H]7[C@H](O)[C@@H](O)[C@@H](O[C@H]8[C@H](O)[C@@H](O)[C@@H](O[C@H]1[C@H](O)[C@H]2O)O[C@@H]8CO)O[C@@H]7CO)O[C@@H]6CO)O[C@@H]5CO)O[C@@H]4CO)O[C@@H]3CO
# Test: purified protein
# Format: biochemical, Thermococcus kodakarensis
# Conditions: 20 mM Tris-HCl pH 7.5, 65°C, 1-10 mg/mL β-CD
protein,measurement,value
B1,Km,3.13 ± 0.47 mg/mL
same,kcat,34.6 s⁻¹
